The target in the data set is T1, ec73-CTD12;ec100-CTD12 (Encephalitozoon …, UniProt Q8SUE4;M1JIZ1 452-567;525-639, |).
T1 sequence 1: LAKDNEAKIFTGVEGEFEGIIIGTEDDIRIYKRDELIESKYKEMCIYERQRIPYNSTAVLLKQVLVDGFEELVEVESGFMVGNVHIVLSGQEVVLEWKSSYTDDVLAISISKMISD
T1 sequence 2: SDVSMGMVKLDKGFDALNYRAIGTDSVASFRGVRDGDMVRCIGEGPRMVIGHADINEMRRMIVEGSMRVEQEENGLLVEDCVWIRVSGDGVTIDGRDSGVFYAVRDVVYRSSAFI
The experiment in a line: EMSA; 50 uM protein, 500 nM nucleic acid; NMR also negative (NMR ligands not specified); EMSA: 20 mM Tris pH 7.5, 150 mM potassium acetate, 1 mM EDTA, 10% glycerol; 30 min incubation; 10% Tris-glycine gel (running buffer 27 mM Tris, 192 mM glycine). The note with it: protein: recombinant;recombinant, copies: 1;1.

Setting [1] is: label: 3' Cy3 on forward strand, blunt.

B1: dsDNA-Cy3 (dsDNA)
DNA 1: AGGGTCTCCATTTTGAAGCATGC
DNA 2: GCATGCTTCAAAATGGAGACCCT
In the case of B1, the binding result under setting [1] is “no binding”.
AGGGUCUCCAUUUUGAAGCAUGC (ssRNA) [ssRNA-Cy3]: the binding result (label: 3' Cy3, single strand) is given as “no binding”.

B2: dsRNA-Cy3 (dsRNA)
RNA 1: AGGGUCUCCAUUUUGAAGCAUGC
RNA 2: GCAUGCUUCAAAAUGGAGACCCU
With B2, the binding result under setting [1] is on record as “no binding”.
For AGGGTCTCCATTTTGAAGCATGC (ssDNA) [ssDNA-Cy3], the binding result (label: 3' Cy3, single strand) is “no binding”.

Source of the values: PMC10688271, “Molecular details of the CPSF73-CPSF100 C-terminal heterodimer and interaction with Symplekin”.
